The text below walks through data of the supplement of paper PMC10567573.

± gives the standard deviation.

The data set in a line: protein stability index of a GFP-peptide fusion (GPS, HEK-293T) (PSI 1-6); higher = more stable.
The mark [1] stands for this setting: treatment: DMSO, c terminus: a fixed tail appended.
[2] abbreviates: treatment: MLN4924 1 uM, 8 h, c terminus: a fixed tail appended.
Setting [3] is: treatment: DMSO, c terminus: native.
Where [4] appears, read: treatment: MLN4924 1 uM, 8 h, c terminus: native.
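Also: 24-mer peptide tiles fused after GFP, lentivirally expressed, FACS-sorted into six equal bins by GFP/DsRed ratio, decoded by Illumina sequencing, PSI is the read-weighted mean bin number.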

For DRADYYLEEFKENAYKDLAWKHGN [PCMTD2], the protein stability index amounted to 3.75 ± 0.084 under setting [1] and 3.07 ± 0.77 under setting [2].
Turning to DRTFTLKTVLMIAIQLLSRMEYVH [CSNK1G1], the protein stability index was determined as 3.15 ± 0.067 under setting [1] and 2.65 ± 1.1 under setting [2].
For the sequence HHDKVQSLCYLQLTRQLVSCSSDG [WDFY1], the protein stability index by setting is: under setting [1], 2.2 ± 0.36; under setting [2], 2.06 ± 0.28.
Regarding NSVSSHASSPYISSVQSYPGSASL [DLX1], the protein stability index by setting is: under setting [1], 3.65 ± 0.19; under setting [2], 3.75 ± 0.23.
For QHNLRYSLENTLTESEARYSSQLS [KRT33B], in that order: 4.11 ± 0.27 and 4.11 ± 0.21.
Take WIFVNLTVRFCILGKESFYDTFHT [HACD3]: the protein stability index under setting [1] was determined as 3.29 ± 0.26 and the protein stability index under setting [2] was 3.05 ± 0.12.
As for EYSPEEESEPPAPNIRNMAPNSLS [TRAF3IP2], the protein stability index runs as follows: under setting [1], 5.04 ± 0.36; under setting [2], 5.07 ± 0.27.
For KILLTKSENARLVLQIDNAKLAAD [KRT36], in that order: 2.99 ± 0.15 and 3.08 ± 0.51.
For TNITEVDAASVYTLPAGADFLMCY [CASP6], in that order: 2.35 ± 0.34 and 2.18 ± 0.25.
For IKPSNIFISRTSIPNAASEEGDED [WEE1], in that order: 4.71 ± 0.24 and 4.97 ± 0.27.
GAGPPEPLRICPLHISVKEELDG [TRIM35]: the protein stability index is, setting by setting: under setting [3], 4.21 ± 0.32; under setting [4], 4.56 ± 0.14.
For AECFRIFDRNADGYIDPEELAEIF [TNNC2], the protein stability index under setting [1] stood at 5.32 ± 0.21 and the protein stability index under setting [2] is 5.09 ± 0.15.
Take QEHQSALEEAKQPKNDNVVIPECA [SMOC2]: the protein stability index reads like this: under setting [1], 5.51 ± 0.23; under setting [2], 5.46 ± 0.27.
For STSEESWTDSEVDSSCSGQPIHLW [SPDEF], in that order: 4.21 ± 0.32 and 4.37 ± 0.25.
As to FDECGITDDQLLALLPSLSHCSQL [PRAME], the protein stability index runs as follows: under setting [1], 3.31 ± 0.15; under setting [2], 3.56 ± 0.19.
Consider NLEGNELQRHADEFLLDLGHHERS [FUT8], for which the protein stability index under setting [1] was 4.84 ± 0.062 and the protein stability index under setting [2] was determined as 4.83 ± 0.31.
Take KTAATRYRQKKRAEQEALTGECKE [ATF4]: the protein stability index under setting [1] came out at 4.95 ± 0.16 and the protein stability index under setting [2] was determined as 5.1 ± 0.094.
For PMNRRNILVMKHNYSQDAADACDI [NETO1], in that order: 3.59 ± 0.11 and 3.8 ± 0.27.
For KASNPDLKLWEIGKIIGGMWRDLT [SMARCE1], in that order: 3.42 ± 1.9 and 2.55 ± 0.64.
For the sequence NPEEDEDQRNPAKESLETPSNGRI [SOAT1], the protein stability index by setting is: under setting [1], 5.76 ± 0.064; under setting [2], 5.62 ± 0.077.
For AGLEDEDVIIEVNGVNVLDEPYEK [PDZK1], in that order: 5.05 ± 0.35 and 5 ± 0.27.
On to LKKSNSAPSKKAAKDPGKGELPNH [FBF1], for which the protein stability index by setting is: under setting [1], 5.14 ± 0.1; under setting [2], 5.08 ± 0.11.
Consider EIETWVREHCPENRERVVSLIEDL [ZNF449], for which the protein stability index by setting is: under setting [1], 3.9 ± 0.2; under setting [2], 4.01 ± 0.29.
On to VATWAIFVHRVGQPSIGGKLSPL [CTBP1-DT], for which the protein stability index was determined as 3.12 ± 0.21 under setting [3] and 2.92 ± 0.47 under setting [4].
Take SYIGLPYADHNYGARPPPTPPASP [KMT2E]: the protein stability index reads like this: under setting [1], 4.66 ± 0.32; under setting [2], 4.73 ± 0.24.
For LDSEKPKKLRFHPKQLYFSARQGE [EHMT1], in that order: 3.2 ± 0.038 and 3.4 ± 0.21.
For GAAFRDHQLLEPIRDFEARKCPVH [TRIM29], in that order: 3.73 ± 0.26 and 3.88 ± 0.17.
For VNADIEKVNQNQAKRCTVIGGSGF [NSDHL], the protein stability index was 3.79 ± 0.2 under setting [1] and 3.87 ± 0.19 under setting [2].
With AERLEVSVDGLTLSPDPEERPGAE [ACBD3], the protein stability index turned out to be 5.29 ± 0.45 under setting [1] and 5.56 ± 0.3 under setting [2].
For the sequence AFFKRTIQGNIEYSCPATNECEIT [ESRRG], the protein stability index by setting is: under setting [1], 3.11 ± 0.25; under setting [2], 3.23 ± 0.27.
Sequence HESVCKYYLCGFCPAELFTNTRSD [LUC7L3] had a protein stability index under setting [1] of 2.17 ± 0.33 and a protein stability index under setting [2] of 2.54 ± 0.29.
As to IGEEVRQLMEKLREKQLSHSLRAV [BEX1], the protein stability index by setting is: under setting [1], 2.68 ± 0.14; under setting [2], 2.82 ± 0.22.
For TIEYLKRHNALLSKRLLALTSSDL [TMEM192], in that order: 2.38 ± 0.42 and 2.17 ± 0.21.
For CTACGSVLEDNIIVSEVQFVESSG [BRF1], in that order: 3.42 ± 0.57 and 3.74 ± 0.35.
For TNKMKSPETKQRKLSPLRLSVSNN [KMT2E], in that order: 4.45 ± 0.18 and 4.41 ± 0.083.
Turning to TPVIAATPVPTITANVTSVPVPPA [BRD3], the protein stability index came to 4.53 ± 0.23 under setting [1] and 4.52 ± 0.047 under setting [2].
For SQLSMKASLENSLEETKGRYCMQL [KRT16], in that order: 3.44 ± 0.18 and 3.61 ± 0.31.
As for RVQAALVWERPARSALWCLGLNAA [RETREG3], the protein stability index reads like this: under setting [1], 2.1 ± 0.71; under setting [2], 2.38 ± 0.14.
RELLMNHRRGLGVDSKPELQRVLE [FAM107A]: the protein stability index reads like this: under setting [1], 3.95 ± 0.18; under setting [2], 4.09 ± 0.14.
For DDIARIYQPKRYALSPKTTITMAH [FAM98B], in that order: 2.77 ± 0.21 and 2.92 ± 0.17.
Take EIPDQNIDVEALQVAFGSLYRDDV [GMCL1]: the protein stability index runs as follows: under setting [1], 4.58 ± 0.32; under setting [2], 4.64 ± 0.094.
For NSDRMTHCGVLEFVADEGICYLPH [UFD1], in that order: 2.87 ± 0.17 and 2.68 ± 0.36.
Turning to TESEARYSSQLSQVQSLITNVESQ [KRT33B], the protein stability index runs as follows: under setting [1], 4.66 ± 0.31; under setting [2], 4.75 ± 0.071.
Take TGFGQGQGYTINVPWNQVGMRDAD [HDAC6]: the protein stability index under setting [1] worked out at 2.89 ± 0.34 and the protein stability index under setting [2] turned out to be 2.71 ± 0.28.
EKERRKKQQWEIMHKHNETSQKIA [RSPH3]: the protein stability index was 4.44 ± 0.42 under setting [1] and 4.91 ± 0.26 under setting [2].
On to LTERKYKGDSTIRELKAKLSGVEE [SASS6], for which the protein stability index reads like this: under setting [1], 4.18 ± 0.41; under setting [2], 4.63 ± 0.52.
KRLKERSLDTLLEAVESRGGVPGG [SMAD6]: the protein stability index was 4.32 ± 0.16 under setting [1] and 4.72 ± 0.12 under setting [2].
For STSEDSLVKQECIKEVVEKREACH [FAN1], in that order: 5.52 ± 0.22 and 5.23 ± 0.092.
KSVAWEGGACPAFLPSLRPPPLTS [NCF4]: the protein stability index runs as follows: under setting [1], 3.12 ± 0.36; under setting [2], 3.11 ± 0.078.
For EIDCVDKDGNTPLHVAARYGHELL [ANKRD44], in that order: 4.05 ± 0.26 and 4.05 ± 0.19.
Sequence QEDITKSLLVTELGSSRTPETVRM [IMPA1] displayed a protein stability index under setting [1] of 4.58 ± 0.12 and a protein stability index under setting [2] of 4.49 ± 0.34.
In the case of VQDMGQEDMLLPLAWRIVNDTYRT [CCNC], the protein stability index runs as follows: under setting [1], 2.37 ± 0.21; under setting [2], 2.57 ± 0.43.
For TLLLRLNATDPDEGTNGQLDYSFG [PCDHGC5], in that order: 2.88 ± 0.36 and 3.11 ± 0.28.
Take GPAGGLADLSSGSSGEDDDFKSCP [PWWP2B]: the protein stability index was 5.43 ± 0.22 under setting [1] and 5.45 ± 0.26 under setting [2].
Take EGLNSSLCSPGHERRGTPADTEEP [PSD2]: the protein stability index reads like this: under setting [1], 5.39 ± 0.37; under setting [2], 5.53 ± 0.19.
For VKISDFGLAKCNGLSHSHDLSMDG [RIPK4], the protein stability index was found to be 2.95 ± 0.42 under setting [1] and 3.23 ± 0.37 under setting [2].
Take SDLFSLAEEYEDSSTKPPKSRRKA [INTS3]: the protein stability index under setting [1] was 5.15 ± 0.34 and the protein stability index under setting [2] is 5.33 ± 0.36.
On to ISFGQLSDRFGRKKVYLTGFALDI [SLC22A15], for which the protein stability index worked out at 2.97 ± 0.43 under setting [1] and 2.73 ± 0.59 under setting [2].
For AILFTRQDLCGVSTCDTLGMADVG [ADAMTS4], in that order: 1.8 ± 0.28 and 2.66 ± 0.22.
For EKMKKRKMSNSFHGIRPPQLEQPE [RHOBTB3], in that order: 4.65 ± 0.12 and 4.77 ± 0.14.
For QNCKKKLGKLPPQYALELLTVYAW [OAS1], in that order: 2.6 ± 0.58 and 2.25 ± 0.64.
With KVPFSQEIKDLILPKISDPNFVKD [PI4K2A], the protein stability index was 3.56 ± 0.24 under setting [1] and 3.56 ± 0.28 under setting [2].
As to QICGTHRQTKKMFCDMDKSLLCLL [TRIM43], the protein stability index reads like this: under setting [1], 2.77 ± 1; under setting [2], 2.18 ± 0.36.
TAELVVIEDAAEPKEPAPPNGSAA [PALM]: the protein stability index is, setting by setting: under setting [1], 5.39 ± 0.14; under setting [2], 5.47 ± 0.16.
With GTEQAPYGMQTQNYPKGGLLDSMC [ETS2], the protein stability index by setting is: under setting [1], 3.59 ± 0.17; under setting [2], 3.84 ± 0.4.
Consider KENAAAPSPVRAPAPSPAKEERKT [PALM], for which the protein stability index runs as follows: under setting [1], 5.45 ± 0.24; under setting [2], 5.53 ± 0.23.
For SESSGQTHLEGDTVQIICNTGYRL [CFHR2], in that order: 3.34 ± 0.21 and 3.48 ± 0.38.
For ESDDAFDTVTIPVPSEEPQESDQT [IQUB], the protein stability index runs as follows: under setting [1], 5.69 ± 0.24; under setting [2], 5.72 ± 0.3.
For TGDGWEFKLADPDEVARRWGKRKN [ETS2], in that order: 4.34 ± 0.33 and 4.34 ± 0.26.
On to TPAFMFRLDASTSHQNLRVDDLSV [FSD1], for which the protein stability index runs as follows: under setting [1], 2.9 ± 0.28; under setting [2], 3.07 ± 0.31.
For PAPLLVLCPSRAELDRWLYHLEKQ [PLEKHN1], in that order: 2.62 ± 0.11 and 2.17 ± 0.29.
For LENVFSSLTDDKYDVAMNRAKDLV [GOLPH3L], the protein stability index reads like this: under setting [1], 3.89 ± 0.32; under setting [2], 3.92 ± 0.19.
